Laboratory results reported in PMC7048170.

Target: MUC1 cytoplasmic tail construct (MUC1 with the tandem repeat domain deleted) (human)
Test: co-IP

fold of co-precipitated protein against the input control	Substance
6.9 fold	p53 (from UniProt P04637 1-393) (natural protein)
5.6 fold	c-Jun (from UniProt P05412 1-331) (natural protein)
